Results as given in US20260274955A1 (JANUX THERAPEUTICS, published 2026).
Like-named read-outs stand apart in the source and are kept apart here. No end group written: not given here.

Key:
anti-CD28 Fab = assay: competition ELISA, alanine scan of Peptide-39, Fab binding plate-bound CD28
[1] = target: anti-CD28 Fab (SEQ ID NOs: 202, 203); assay: phage binding ELISA; captured anti-CD28 Fab pre-incubated with CD28 antigen as competitor, anti-M13-HRP detection
[2] = target: anti-CD28 Fab (SEQ ID NOs: 202, 203); assay: phage binding ELISA; biotinylated anti-CD28 Fab captured on neutravidin plate, clonal phage supernatant, anti-M13-HRP detection;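 note: before crude clonal phage supernatants were added, wells were preincubated with CD28 antigen in blocking buffer or with blocking buffer only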
[3] = target: T1, anti-CD28 Fab (SEQ ID NOs: 202, 203); assay: phage binding ELISA on captured Fab, competitor CD28 antigen
T1 construct: biotinylated and captured on neutravidin coated plates in the phage ELISA

[4] = target: T1, anti-CD28 Fab (SEQ ID NOs: 202, 203); assay: phage binding ELISA on captured biotinylated Fab;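 note: clonal phage supernatants added to wells preincubated with CD28 antigen or blocking buffer only, bound phage detected by ELISA with horseradish-conjugated anti-M13 antibody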
Ab-1 [5] = target: T2, Ab-1; assay: competition ELISA, peptide titrated vs 1 nM Ab-1 binding plate-bound CD28
T2 construct: also called anti-CD28 scFv harbored in Ab-1

Ab-1 [6] = target: T2, Ab-1; assay: binding ELISA, peptide captured, Ab-1 titrated
Ab-1 [7] = target: T2, Ab-1; assay: BLI (Octet), peptide on sensor, Ab-1 titrated, 1:1 model
Ab-1 [8] = target: T2, Ab-1; assay: BLI (Octet), 200 nM peptide, 100 nM Ab-1;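 for t1/2: association and dissociation phases tracked in real time, with kinetics fitted to a 1:1 interaction model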
Ab-1 [9] = target: T2, Ab-1; assay: BLI (Octet), 200 nM peptide, 100 nM Ab-1; remark: listed apart in the source;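 for t1/2: association and dissociation phases tracked in real time, with kinetics fitted to a 1:1 interaction model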
Ab-1 [10] = target: T2, Ab-1; assay: competition ELISA, peptide titrated vs 1 nM Ab-1 binding plate-bound CD28; remark: listed apart in the source
Ab-1 [11] = target: T2, Ab-1; assay: binding ELISA, peptide captured, Ab-1 titrated; remark: listed apart in the source

B1: Peptide-39 (peptide)
peptide: YCAGHAWQYINKCL
modifications: cysteine pairing not given here; also: biotinylated, site not given here
notes: synthetic peptide
IC50 (anti-CD28 Fab): 12600 µM

B2: Peptide-65 (peptide)
peptide: YCAGHAWQYANKCL
notes: alanine scanning peptide of Peptide-39 (I10A)
IC50 (anti-CD28 Fab): 102000 µM

B3: Peptide-63 (peptide)
peptide: YCAGHAWAYINKCL
notes: alanine scanning peptide of Peptide-39 (Q8A)
IC50 (anti-CD28 Fab): 12300 µM

B4: Peptide-62 (peptide)
peptide: YCAGHAAQYINKCL
notes: alanine scanning peptide of Peptide-39 (W7A)
IC50 (anti-CD28 Fab): 3160 µM

B5: Peptide-66 (peptide)
peptide: YCAGHAWQYIAKCL
notes: alanine scanning peptide of Peptide-39 (N11A)
IC50 (anti-CD28 Fab): 5490 µM

B6: Peptide-68 (peptide)
peptide: YCAGHAWQYINKCA
notes: alanine scanning peptide of Peptide-39 (L14A)
IC50 (anti-CD28 Fab): 98600 µM

B7: Phage-1251 (peptide)
peptide: GCAAGAEYNWPTCL
Anti-CD28 Fab signal in the presence of CD28 [1]: 0.64 | Anti-CD28 Fab (SEQ ID NOs: 202, 203) signal [2]: 0.69

B8: Phage-1249 (peptide)
peptide: PCSAGATYAWPYCL
Anti-CD28 Fab signal in the presence of CD28 [1]: 0.09 | Anti-CD28 Fab (SEQ ID NOs: 202, 203) signal [2]: 0.71

B9: Phage-1259 (peptide)
peptide: GCAAGFHYTLSTCL
Anti-CD28 Fab signal in the presence of CD28 [1]: 0.05 | Anti-CD28 Fab (SEQ ID NOs: 202, 203) signal [2]: 0.42

B10: Phage-1247 (peptide)
peptide: TCAAGATYDWPSCL
Anti-CD28 Fab signal in the presence of CD28 [1]: 0.08 | Anti-CD28 Fab (SEQ ID NOs: 202, 203) signal [2]: 0.71

B11: Phage-1257 (peptide)
peptide: SCAAGAGYGWPQCL
Anti-CD28 Fab signal in the presence of CD28 [1]: 0.13 | Anti-CD28 Fab (SEQ ID NOs: 202, 203) signal [2]: 0.55

B12: Phage-931 (peptide)
peptide: TCSAGASNKLSLCL
Anti-CD28 Fab signal in the presence of CD28 [3]: 0.06 | Anti-CD28 Fab (SEQ ID NOs: 202, 203) signal [4]: 2.18

B13: Phage-935 (peptide)
peptide: SCAAGAMYSWPTCL
Anti-CD28 Fab signal in the presence of CD28 [3]: 0.08 | Anti-CD28 Fab (SEQ ID NOs: 202, 203) signal [4]: 2.16

B14: Phage-1254 (peptide)
peptide: WCSAVFSYQWPVCL
Anti-CD28 Fab signal in the presence of CD28 [1]: 0.06 | Anti-CD28 Fab (SEQ ID NOs: 202, 203) signal [2]: 0.61

B15: Peptide-3 (peptide)
peptide: RDWCPRDLWVHCFA
modifications: cysteine pairing not given here; also: biotinylated, site not given here
IC50 (Ab-1 [5]): 0.17 µM | EC50 (Ab-1 [6]): 0.0146 µM | Kd (Ab-1 [7]): 0.0203 µM | t1/2 (Ab-1 [7]): 6.2 min | Octet signal (Ab-1 [8]): 1.22 | t1/2 (Ab-1 [8]): 4.9 min

B16: Peptide-6 (peptide)
peptide: QDWCPRDLWVHCFA
modifications: cysteine pairing not given here; also: biotinylated, site not given here
IC50 (Ab-1 [5]): 0.33 µM | EC50 (Ab-1 [6]): 0.0257 µM | Kd (Ab-1 [7]): 0.0246 µM | t1/2 (Ab-1 [7]): 4.2 min | Octet signal (Ab-1 [8]): 1.12 | t1/2 (Ab-1 [8]): 3.6 min

B17: Peptide-12 (peptide)
peptide: KDWCPRDLWVHCFA
modifications: cysteine pairing not given here; also: biotinylated, site not given here
IC50 (Ab-1 [5]): 0.19 µM | EC50 (Ab-1 [6]): 0.0197 µM | Kd (Ab-1 [7]): 0.0261 µM | t1/2 (Ab-1 [7]): 4.5 min | Octet signal (Ab-1 [8]): 1.13 | t1/2 (Ab-1 [8]): 4 min

B18: Peptide-7 (peptide)
peptide: EDWCPRDLWVHCFA
modifications: cysteine pairing not given here; also: biotinylated, site not given here
IC50 (Ab-1 [5]): 0.3 µM | EC50 (Ab-1 [6]): 0.0328 µM | Kd (Ab-1 [7]): 0.0232 µM | t1/2 (Ab-1 [7]): 3.1 min | Octet signal (Ab-1 [8]): 1.02 | t1/2 (Ab-1 [8]): 3 min

B19: Peptide-16 (peptide)
peptide: TDWCPRDLWVHCFA
modifications: cysteine pairing not given here; also: biotinylated, site not given here
IC50 (Ab-1 [5]): 0.59 µM | EC50 (Ab-1 [6]): 0.024 µM | Kd (Ab-1 [7]): 0.0255 µM | t1/2 (Ab-1 [7]): 4.7 min | Octet signal (Ab-1 [8]): 1.34 | t1/2 (Ab-1 [8]): 4.2 min

B20: Phage-933 (peptide)
peptide: RCSAGFHYPLSLCL
Anti-CD28 Fab signal in the presence of CD28 [3]: 0.06 | Anti-CD28 Fab (SEQ ID NOs: 202, 203) signal [4]: 2.18

B21: Peptide-22 (peptide)
peptide: LDWCPRHLWALCFN
modifications: cysteine pairing not given here; also: biotinylated, site not given here
Octet signal (200 nM peptide) (Ab-1 [9]): 0.697 | IC50 (Ab-1 [10]): 0.47 µM | EC50 (Ab-1 [11]): 0.0082 µM

B22: Phage-1258 (peptide)
peptide: SCGGGFHYSWPLCF
Anti-CD28 Fab signal in the presence of CD28 [1]: 0.15 | Anti-CD28 Fab (SEQ ID NOs: 202, 203) signal [2]: 0.55

B23: Phage-928 (peptide)
peptide: TCAAGANWEWPWCF
Anti-CD28 Fab signal in the presence of CD28 [3]: 0.08 | Anti-CD28 Fab (SEQ ID NOs: 202, 203) signal [4]: 2.22

B24: Phage-1255 (peptide)
peptide: SCSAGASYAWPMCI
Anti-CD28 Fab signal in the presence of CD28 [1]: 0.06 | Anti-CD28 Fab (SEQ ID NOs: 202, 203) signal [2]: 0.59

B25: Phage-927 (peptide)
peptide: MCAAGFHYPWPACL
Anti-CD28 Fab signal in the presence of CD28 [3]: 0.1 | Anti-CD28 Fab (SEQ ID NOs: 202, 203) signal [4]: 2.23

B26: Phage-932 (peptide)
peptide: MCSAGANWPWPLCF
Anti-CD28 Fab signal in the presence of CD28 [3]: 0.07 | Anti-CD28 Fab (SEQ ID NOs: 202, 203) signal [4]: 2.18

B27: Phage-1256 (peptide)
peptide: DCWWDSPYHWRVCL
Anti-CD28 Fab signal in the presence of CD28 [1]: 0.07 | Anti-CD28 Fab (SEQ ID NOs: 202, 203) signal [2]: 0.57

B28: Phage-929 (peptide)
peptide: TCAAGATYAWPYCV
Anti-CD28 Fab signal in the presence of CD28 [3]: 0.09 | Anti-CD28 Fab (SEQ ID NOs: 202, 203) signal [4]: 2.21

B29: Phage-1248 (peptide)
peptide: TCAAGAVWQWPTCF
Anti-CD28 Fab signal in the presence of CD28 [1]: 0.06 | Anti-CD28 Fab (SEQ ID NOs: 202, 203) signal [2]: 0.71

B30: Peptide-24 (peptide)
peptide: IDWCPLHLWHECYH
modifications: cysteine pairing not given here; also: biotinylated, site not given here
Octet signal (200 nM peptide) (Ab-1 [9]): 0.838 | IC50 (Ab-1 [10]): 1.52 µM | EC50 (Ab-1 [11]): 0.0133 µM

B31: Phage-930 (peptide)
peptide: TCAAGAAYPWPLCF
Anti-CD28 Fab signal in the presence of CD28 [3]: 0.11 | Anti-CD28 Fab (SEQ ID NOs: 202, 203) signal [4]: 2.18

B32: Phage-934 (peptide)
peptide: NCSAGATYPWPLCL
Anti-CD28 Fab signal in the presence of CD28 [3]: 0.07 | Anti-CD28 Fab (SEQ ID NOs: 202, 203) signal [4]: 2.17

B33: Phage-940 (peptide)
peptide: LCNAGATYSWPTCL
Anti-CD28 Fab signal in the presence of CD28 [3]: 0.06 | Anti-CD28 Fab (SEQ ID NOs: 202, 203) signal [4]: 2.14

B34: Phage-936 (peptide)
peptide: NCSAGAQWPWPICL
Anti-CD28 Fab signal in the presence of CD28 [3]: 0.08 | Anti-CD28 Fab (SEQ ID NOs: 202, 203) signal [4]: 2.15

B35: Phage-1250 (peptide)
peptide: TCAAGAQLEWPWCF
Anti-CD28 Fab signal in the presence of CD28 [1]: 0.07 | Anti-CD28 Fab (SEQ ID NOs: 202, 203) signal [2]: 0.7

B36: Phage-937 (peptide)
peptide: LCAAGAHYPWPQCL
Anti-CD28 Fab signal in the presence of CD28 [3]: 0.07 | Anti-CD28 Fab (SEQ ID NOs: 202, 203) signal [4]: 2.15

B37: Phage-938 (peptide)
peptide: TCAAGAHWPWPTCF
Anti-CD28 Fab signal in the presence of CD28 [3]: 0.07 | Anti-CD28 Fab (SEQ ID NOs: 202, 203) signal [4]: 2.15

B38: Phage-1252 (peptide)
peptide: TCAAGAAYTWPHCF
Anti-CD28 Fab signal in the presence of CD28 [1]: 0.11 | Anti-CD28 Fab (SEQ ID NOs: 202, 203) signal [2]: 0.69

B39: Phage-1253 (peptide)
peptide: TCSAGAQWEWPACL
Anti-CD28 Fab signal in the presence of CD28 [1]: 0.08 | Anti-CD28 Fab (SEQ ID NOs: 202, 203) signal [2]: 0.67

B40: Phage-939 (peptide)
peptide: TCSAGATYTWSKCF
Anti-CD28 Fab signal in the presence of CD28 [3]: 0.06 | Anti-CD28 Fab (SEQ ID NOs: 202, 203) signal [4]: 2.15

B41: Phage-941 (peptide)
peptide: TCSAGATYTWPWCF
Anti-CD28 Fab signal in the presence of CD28 [3]: 0.07 | Anti-CD28 Fab (SEQ ID NOs: 202, 203) signal [4]: 2.14
